From US20220227866A1 (VELOSBIO, published 2022)
“And” between values parts separate entries of the source, which are not always exact repeats. Identical values can stand only once.

B1: Bispecific construct 4 (bispecific antibody, human IgG1, kappa)
heavy: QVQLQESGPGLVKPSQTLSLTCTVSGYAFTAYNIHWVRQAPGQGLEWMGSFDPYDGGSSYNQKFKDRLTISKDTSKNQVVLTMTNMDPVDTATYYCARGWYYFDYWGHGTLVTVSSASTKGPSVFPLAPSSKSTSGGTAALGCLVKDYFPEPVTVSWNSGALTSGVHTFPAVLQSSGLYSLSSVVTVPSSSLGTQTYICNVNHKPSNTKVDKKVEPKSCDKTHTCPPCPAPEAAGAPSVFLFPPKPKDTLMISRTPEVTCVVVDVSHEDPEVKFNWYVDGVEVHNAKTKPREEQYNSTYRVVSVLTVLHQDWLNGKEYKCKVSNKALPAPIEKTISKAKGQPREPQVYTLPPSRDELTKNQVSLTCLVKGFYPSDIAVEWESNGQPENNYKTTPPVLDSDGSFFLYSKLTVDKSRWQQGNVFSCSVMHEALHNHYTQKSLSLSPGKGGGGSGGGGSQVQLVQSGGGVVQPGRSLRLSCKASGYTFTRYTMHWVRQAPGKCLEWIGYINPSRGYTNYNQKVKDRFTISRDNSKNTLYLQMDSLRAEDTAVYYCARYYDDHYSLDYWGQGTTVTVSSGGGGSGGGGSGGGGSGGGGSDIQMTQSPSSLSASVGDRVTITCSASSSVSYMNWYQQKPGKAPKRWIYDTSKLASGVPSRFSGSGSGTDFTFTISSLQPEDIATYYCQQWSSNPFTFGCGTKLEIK
light: DIVMTQTPLSLPVTPGEPASISCRASKSISKYLAWYQQKPGQAPRLLIYSGSTLQSGIPPRFSGSGYGTDFTLTINNIESEDAAYYFCQQHDESPYTFGEGTKVEIKRTVAAPSVFIFPPSDEQLKSGTASVVCLLNNFYPREAKVQWKVDNALQSGNSQESVTEQDSKDSTYSLSSTLTLSKADYEKHKVYACEVTHQGLSSPVTKSFNRGEC
notes: disulfide-stabilized anti-CD3 scFv Ab8; ROR1 arm Ab1; valency 2/2
B2: Bispecific construct 3 (bispecific antibody, human IgG1, kappa)
heavy: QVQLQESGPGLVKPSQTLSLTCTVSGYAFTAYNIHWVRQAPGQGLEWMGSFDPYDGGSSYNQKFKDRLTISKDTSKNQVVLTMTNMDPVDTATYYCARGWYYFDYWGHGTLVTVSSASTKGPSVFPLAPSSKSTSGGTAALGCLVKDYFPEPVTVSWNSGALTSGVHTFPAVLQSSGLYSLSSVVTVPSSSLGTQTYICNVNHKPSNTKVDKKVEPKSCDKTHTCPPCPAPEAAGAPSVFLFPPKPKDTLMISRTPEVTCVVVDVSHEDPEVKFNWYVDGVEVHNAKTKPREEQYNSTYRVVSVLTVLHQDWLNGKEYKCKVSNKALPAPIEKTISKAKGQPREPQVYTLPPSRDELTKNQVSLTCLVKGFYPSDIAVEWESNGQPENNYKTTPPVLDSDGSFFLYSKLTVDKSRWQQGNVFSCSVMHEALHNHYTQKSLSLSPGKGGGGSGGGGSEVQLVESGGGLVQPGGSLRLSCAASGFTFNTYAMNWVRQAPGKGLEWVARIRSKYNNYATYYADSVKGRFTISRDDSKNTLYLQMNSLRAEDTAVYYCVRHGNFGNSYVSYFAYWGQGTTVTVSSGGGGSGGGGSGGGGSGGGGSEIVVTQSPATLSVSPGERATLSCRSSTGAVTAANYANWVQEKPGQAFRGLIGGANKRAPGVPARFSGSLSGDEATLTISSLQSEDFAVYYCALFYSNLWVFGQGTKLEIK
light: B1 light
notes: anti-CD3 scFv Ab10 (SP34-based); ROR1 arm Ab1; valency 2/2
B3: Bispecific construct 14 (bispecific antibody, human IgG1, kappa)
heavy 1: not shown
heavy 2: QVQLVQSGAEVKKPGASVKVSCKASGYTFTRYTMHWVRQAPGQGLEWMGYINPSRGYTNYNQKFKDRVTLTTDKSSSTAYMELSSLRSEDTAVYYCARYYDDHYSLDYWGQGTLVTVSSGGGGSGGGGSGGGGSGGGGSDIQMTQSPSSLSASVGDRVTITCSASSSVSYMNWYQQKPGKAPKRLIYDTSKLASGVPSRFSGSGSGTDFTLTISSLQPEDFATYYCQQWSSNPFTFGQGTKLEIKEPKSSDKTHTCPPCPAPEAAGAPSVFLFPPKPKDTLMISRTPEVTCVVVDVSHEDPEVKFNWYVDGVEVHNAKTKPREEQYNSTYRVVSVLTVLHQDWLNGKEYKCKVSNKALPAPIEKTISKAKGQPREPQVYTLPPSRDELTKNQVSLSCAVKGFYPSDIAVEWESNGQPENNYKTTPPVLDSDGSFFLVSKLTVDKSRWQQGNVFSCSVMHEALHNHYTQKSLSLSPGK
light: B1 light
notes: anti-CD3 scFv Ab9; ROR1 arm Ab1; valency 1/1
B4: Bispecific construct 15 (bispecific antibody, human IgG1, kappa)
heavy 1: not shown
heavy 2: EVQLVESGGGLVQPGGSLRLSCAASGFTFNTYAMNWVRQAPGKGLEWVARIRSKYNNYATYYADSVKGRFTISRDDSKNTLYLQMNSLRAEDTAVYYCVRHGNFGNSYVSYFAYWGQGTTVTVSSGGGGSGGGGSGGGGSGGGGSEIVVTQSPATLSVSPGERATLSCRSSTGAVTAANYANWVQEKPGQAFRGLIGGANKRAPGVPARFSGSLSGDEATLTISSLQSEDFAVYYCALFYSNLWVFGQGTKLEIKEPKSSDKTHTCPPCPAPEAAGAPSVFLFPPKPKDTLMISRTPEVTCVVVDVSHEDPEVKFNWYVDGVEVHNAKTKPREEQYNSTYRVVSVLTVLHQDWLNGKEYKCKVSNKALPAPIEKTISKAKGQPREPQVYTLPPSRDELTKNQVSLSCAVKGFYPSDIAVEWESNGQPENNYKTTPPVLDSDGSFFLVSKLTVDKSRWQQGNVFSCSVMHEALHNHYTQKSLSLSPGK
light: B1 light
notes: anti-CD3 scFv Ab10 (SP34-based); ROR1 arm Ab1; valency 1/1
B5: Bispecific construct 5 (bispecific antibody, human IgG1, kappa)
heavy: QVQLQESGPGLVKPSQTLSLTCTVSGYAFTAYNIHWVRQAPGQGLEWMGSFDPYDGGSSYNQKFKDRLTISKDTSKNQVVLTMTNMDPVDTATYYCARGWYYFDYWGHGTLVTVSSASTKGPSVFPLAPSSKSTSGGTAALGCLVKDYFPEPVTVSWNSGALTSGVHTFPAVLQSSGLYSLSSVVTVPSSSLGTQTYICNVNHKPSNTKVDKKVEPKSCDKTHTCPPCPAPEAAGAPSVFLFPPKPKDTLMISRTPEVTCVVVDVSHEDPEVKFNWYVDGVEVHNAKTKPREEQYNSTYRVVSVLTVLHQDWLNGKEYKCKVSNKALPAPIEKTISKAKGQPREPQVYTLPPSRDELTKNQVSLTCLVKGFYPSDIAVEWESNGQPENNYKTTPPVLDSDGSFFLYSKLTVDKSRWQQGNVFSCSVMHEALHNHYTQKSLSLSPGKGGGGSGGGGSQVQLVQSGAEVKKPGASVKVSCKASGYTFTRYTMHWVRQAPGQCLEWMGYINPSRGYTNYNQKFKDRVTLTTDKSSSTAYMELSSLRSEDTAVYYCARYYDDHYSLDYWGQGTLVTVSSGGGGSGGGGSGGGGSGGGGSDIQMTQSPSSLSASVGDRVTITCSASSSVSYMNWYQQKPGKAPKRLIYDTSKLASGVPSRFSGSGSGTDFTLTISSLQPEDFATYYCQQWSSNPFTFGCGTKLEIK
light: B1 light
notes: disulfide-stabilized anti-CD3 scFv Ab9; ROR1 arm Ab1; valency 2/2
B6: Bispecific construct 6 (bispecific antibody, human IgG1, kappa)
heavy: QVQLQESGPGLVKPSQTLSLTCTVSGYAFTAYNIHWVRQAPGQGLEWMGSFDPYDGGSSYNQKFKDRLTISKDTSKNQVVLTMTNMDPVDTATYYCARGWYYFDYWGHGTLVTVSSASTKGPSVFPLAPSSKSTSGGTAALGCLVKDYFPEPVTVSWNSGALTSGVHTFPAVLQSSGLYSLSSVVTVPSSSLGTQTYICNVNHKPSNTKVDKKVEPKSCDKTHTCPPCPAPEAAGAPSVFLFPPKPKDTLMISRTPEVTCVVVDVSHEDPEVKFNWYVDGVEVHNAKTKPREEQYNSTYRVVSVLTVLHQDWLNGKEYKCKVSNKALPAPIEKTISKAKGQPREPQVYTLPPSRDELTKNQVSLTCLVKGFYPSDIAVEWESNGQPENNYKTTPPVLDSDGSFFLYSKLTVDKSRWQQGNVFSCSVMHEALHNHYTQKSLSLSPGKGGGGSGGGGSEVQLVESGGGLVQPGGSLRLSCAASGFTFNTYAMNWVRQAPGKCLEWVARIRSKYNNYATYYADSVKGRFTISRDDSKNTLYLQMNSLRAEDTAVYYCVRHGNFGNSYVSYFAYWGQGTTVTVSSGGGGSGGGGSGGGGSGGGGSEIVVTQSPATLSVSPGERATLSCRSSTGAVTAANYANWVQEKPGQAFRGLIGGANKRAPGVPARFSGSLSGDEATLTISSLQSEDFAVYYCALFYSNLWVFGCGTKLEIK
light: B1 light
notes: disulfide-stabilized anti-CD3 scFv Ab10; ROR1 arm Ab1; valency 2/2
B7: Bispecific construct 11 (bispecific antibody, human IgG1, kappa)
heavy: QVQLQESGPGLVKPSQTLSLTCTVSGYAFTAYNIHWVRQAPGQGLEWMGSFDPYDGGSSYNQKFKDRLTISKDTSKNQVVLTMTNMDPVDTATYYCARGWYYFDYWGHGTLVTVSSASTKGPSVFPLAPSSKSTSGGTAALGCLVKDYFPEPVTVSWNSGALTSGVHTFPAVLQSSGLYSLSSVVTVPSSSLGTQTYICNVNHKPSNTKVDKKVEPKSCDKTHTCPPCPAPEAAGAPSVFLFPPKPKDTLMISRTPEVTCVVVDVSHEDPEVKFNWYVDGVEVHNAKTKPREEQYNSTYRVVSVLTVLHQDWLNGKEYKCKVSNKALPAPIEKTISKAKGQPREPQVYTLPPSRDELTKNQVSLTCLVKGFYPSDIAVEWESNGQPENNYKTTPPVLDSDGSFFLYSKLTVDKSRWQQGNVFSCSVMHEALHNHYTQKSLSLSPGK
light: DIVMTQTPLSLPVTPGEPASISCRASKSISKYLAWYQQKPGQAPRLLIYSGSTLQSGIPPRFSGSGYGTDFTLTINNIESEDAAYYFCQQHDESPYTFGEGTKVEIKRTVAAPSVFIFPPSDEQLKSGTASVVCLLNNFYPREAKVQWKVDNALQSGNSQESVTEQDSKDSTYSLSSTLTLSKADYEKHKVYACEVTHQGLSSPVTKSFNRGECGGGGSGGGGSQVQLVQSGAEVKKPGASVKVSCKASGYTFTRYTMHWVRQAPGQCLEWMGYINPSRGYTNYNQKFKDRVTLTTDKSSSTAYMELSSLRSEDTAVYYCARYYDDHYSLDYWGQGTLVTVSSGGGGSGGGGSGGGGSGGGGSDIQMTQSPSSLSASVGDRVTITCSASSSVSYMNWYQQKPGKAPKRLIYDTSKLASGVPSRFSGSGSGTDFTLTISSLQPEDFATYYCQQWSSNPFTFGCGTKLEIK
notes: as for B5
B8: Bispecific construct 10 (bispecific antibody, human IgG1, kappa)
heavy: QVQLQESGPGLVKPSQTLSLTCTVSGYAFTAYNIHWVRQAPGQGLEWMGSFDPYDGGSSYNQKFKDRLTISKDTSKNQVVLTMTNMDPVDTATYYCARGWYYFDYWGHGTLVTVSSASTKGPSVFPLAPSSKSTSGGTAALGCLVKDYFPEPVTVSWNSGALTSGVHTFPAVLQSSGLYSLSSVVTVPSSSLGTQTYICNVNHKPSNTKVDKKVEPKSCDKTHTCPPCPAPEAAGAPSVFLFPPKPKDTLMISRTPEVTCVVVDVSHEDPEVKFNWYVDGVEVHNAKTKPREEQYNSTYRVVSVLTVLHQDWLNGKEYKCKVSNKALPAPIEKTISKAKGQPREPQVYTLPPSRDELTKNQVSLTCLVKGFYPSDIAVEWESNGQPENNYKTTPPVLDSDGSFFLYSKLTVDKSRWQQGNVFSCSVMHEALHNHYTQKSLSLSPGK
light: DIVMTQTPLSLPVTPGEPASISCRASKSISKYLAWYQQKPGQAPRLLIYSGSTLQSGIPPRFSGSGYGTDFTLTINNIESEDAAYYFCQQHDESPYTFGEGTKVEIKRTVAAPSVFIFPPSDEQLKSGTASVVCLLNNFYPREAKVQWKVDNALQSGNSQESVTEQDSKDSTYSLSSTLTLSKADYEKHKVYACEVTHQGLSSPVTKSFNRGECGGGGSGGGGSQVQLVQSGGGVVQPGRSLRLSCKASGYTFTRYTMHWVRQAPGKCLEWIGYINPSRGYTNYNQKVKDRFTISRDNSKNTLYLQMDSLRAEDTAVYYCARYYDDHYSLDYWGQGTTVTVSSGGGGSGGGGSGGGGSGGGGSDIQMTQSPSSLSASVGDRVTITCSASSSVSYMNWYQQKPGKAPKRWIYDTSKLASGVPSRFSGSGSGTDFTFTISSLQPEDIATYYCQQWSSNPFTFGCGTKLEIK
notes: as for B1

Tests used:
[1] = target: T1, soluble biotinylated human ROR1 extracellular domain (human, UniProt Q01973 30-406, biotinylated with EZ-Link Sulfo-NHS-LC-Biotin at a 1:5 molar ratio); experiment: ELISA, captured construct, biotinylated ROR1 titrated
T1 construct: Acro Biosystems cat; whole entry named; also called b-ROR1; soluble b-ROR1
Protocol: To measure the binding of bispecific constructs to soluble ROR1, a 96-well Costar-3366 plate was coated with 50 μL/well of 2 μg/mL goat anti-human kappa (Southern Biotech cat. #2060-01) in PBS overnight at 4° C. The plate was rinsed once with PBS-T, blocked with 100 μL/well 5% M-P for 1 h at 25° C., rinsed once with PBS-T, and 2 μg/mL of the bispecific binding molecule was added and incubated for 1 h at 25° C. The plate was washed three times with PBS-T. Biotinylated ROR1 was diluted serially, 3-fold in 5% M-P and was incubated for 1 h at 25° C. (50 μL/well). The plate was washed three times with PBS-T. To detect the binding of b-ROR1, 50 μL/well Neutravidin-HRP (Pierce cat. #31030) diluted 1:5000 in 1% BSA-PBS was added for 1 h at 25° C. The plate was washed three times with PBS-T, then developed with 50 μL/well 1-Step Ultra TMB-ELISA (Thermo Scientific cat. #34028). The reaction was terminated by the addition of 2 N H₂SO₄ and the A450 was determined using a Spectramax plate reader.
The stronger binding observed with bivalent constructs versus monovalent constructs in cell assays and ELISAs in which the antigen is immobilized is consistent with an avidity effect. To determine if this was the case, binding to soluble monomeric ROR1 was assessed by immobilizing the bispecific binding molecules on a microtiter plate coated with goat anti-human kappa antibody and titrating biotinylated RORL. All bispecific binding molecules were active in this format (FIG. 7), and in most cases, there were no notable differences between monovalent and bivalent constructs.

[2] = target: T2, human CD3 on Jurkat cells (human, UniProt P09693 23-182; P04234 22-171; P07766 23-207); experiment: flow cytometry on Jurkat cells
T2 construct: GenBank NP_000064.1, NP_000723.1, NP_000724.1
Protocol: To quantitate CD3 binding, 2.5E5 Jurkat cells were used for each condition. A 2× stock of the cells was made by resuspending the cells to 5E6/mL by placing in 50 μL of PBS with 2% FBS. Next, the cells were diluted with an equal volume of 2× stock of the test bispecific binding molecule. The cells and antibody were co-incubated on ice for 20 min. The cells were then washed 3 times with 300 μL of FACS buffer and were resuspended in 100 μL of goat anti-human Fc-PE conjugate antibody (Invitrogen cat. #12499882) at 1:500 dilution and incubated on ice with reduced light for 20 min. The cells were then washed 3 times with 300 μL of FACS buffer and fixed with 2% paraformaldehyde for 10 min at 25° C. The cells were washed 2 times with 300 μL of FACS buffer and analyzed on a Miltenyi MACSQuant Analyzer.

[3] = target: T3, recombinant human ROR1 extracellular domain (human, UniProt Q01973 30-406); experiment: ELISA, immobilised ROR1 ECD, construct titrated
T3 construct: Bought (Acro Biosystems cat. R01-H522Y); whole entry named; also called ROR1-ECD; immobilized ROR1
Protocol: A 96-well Costar-3366 plate was coated with 50 μL/well of 2 μg/mL […] (Acro Biosystems cat. #R01-H522Y) in PBS overnight at 4° C. The plate was rinsed once with PBS containing 0.05% Tween 20 (PBS-T) and blocked with 100 μL/well of 5% non-fat milk in PBS (5% M-P) for 1 h at 25° C. Antibody samples were serially diluted 2-fold using 5% M-P and were incubated for 1 h at 25° C. (50 μL/well). The plate was washed three times with PBS-T and 50 μL/well anti-human kappa, HRP conjugate (Southern Biotech cat. #2060-05) diluted 10,000-fold in 5% M-P was added for 1 h at 25° C. The plate was washed three times with PBS-T, developed with 50 μL/well 1-Step Ultra TMB-ELISA (Thermo Scientific cat. #34028). The reaction was terminated by the addition of 2 N H₂SO₄ and the A450 was determined using a Spectramax plate reader.
Next, the binding of bispecific binding molecules to ROR was characterized by ELISA using recombinantly-expressed extracellular domain of RORL. ROR was immobilized on a microtiter plate, the bispecific binding molecules were titrated, and binding was quantitated with an anti-human kappa-HRP reagent. Consistent with the cell binding data, all constructs bound ROR1 in a concentration-dependent manner (FIG. 6). Moreover, monovalent ROR1 constructs 13-15 bound less tightly than all but two of the bivalent constructs.

[4] = target: T4, human ROR1 on cells (human, UniProt Q01973 30-937); experiment: flow cytometry on JeKo-1 cells
T4 construct: Cell-surface ROR1; also called ROR1-transfected MEC cells; JeKo-1 cells
Protocol: ROR1 binding was quantitated using both ROR1-transfected MEC cells and JeKo-1 cells. For each condition, 2.5E5 cells were used. The cells were placed in 50 μL of PBS with 2% FBS. Next, the cells were diluted with an equal volume of 2× stock of the test bispecific binding molecule. The cells and antibody were co-incubated on ice for 20 min. The cells were then washed 3 times with 300 μL of FACS buffer and were resuspended in 100 μL of anti-human Fc-PE conjugate antibody (Invitrogen cat. #12499882) and incubated on ice with reduced light for 20 min. Subsequently, the cells were washed 3 times with 300 μL of FACS buffer and fixed with 2% paraformaldehyde for 10 min at 25° C. The cells then were washed 2 times with 300 μL of FACS buffer and analyzed on a Miltenyi MACSQuant Analyzer.
The influence of ROR expression levels on binding of the bispecific constructs was assessed by flow cytometry using JeKo-1 cells. JeKo-1 cells express lower levels of ROR (˜13,000 copies/cell) than the ROR1-transfected MEC cells (˜56,000 copies/cell). All constructs bound JeKo-1 cells (FIG. 5). […] Specifically, monovalent ROR1 constructs generally bound more weakly than the bivalent constructs (FIG. 5, Panel A, compare constructs 14 and 15 with other constructs; FIG. 5, Panel C, compare constructs 15-17 with other constructs).

[5] = target: T4, human ROR1 on cells; experiment: cell-based or functional assay

T4 sequence (Q01973 30-937 limits assumed): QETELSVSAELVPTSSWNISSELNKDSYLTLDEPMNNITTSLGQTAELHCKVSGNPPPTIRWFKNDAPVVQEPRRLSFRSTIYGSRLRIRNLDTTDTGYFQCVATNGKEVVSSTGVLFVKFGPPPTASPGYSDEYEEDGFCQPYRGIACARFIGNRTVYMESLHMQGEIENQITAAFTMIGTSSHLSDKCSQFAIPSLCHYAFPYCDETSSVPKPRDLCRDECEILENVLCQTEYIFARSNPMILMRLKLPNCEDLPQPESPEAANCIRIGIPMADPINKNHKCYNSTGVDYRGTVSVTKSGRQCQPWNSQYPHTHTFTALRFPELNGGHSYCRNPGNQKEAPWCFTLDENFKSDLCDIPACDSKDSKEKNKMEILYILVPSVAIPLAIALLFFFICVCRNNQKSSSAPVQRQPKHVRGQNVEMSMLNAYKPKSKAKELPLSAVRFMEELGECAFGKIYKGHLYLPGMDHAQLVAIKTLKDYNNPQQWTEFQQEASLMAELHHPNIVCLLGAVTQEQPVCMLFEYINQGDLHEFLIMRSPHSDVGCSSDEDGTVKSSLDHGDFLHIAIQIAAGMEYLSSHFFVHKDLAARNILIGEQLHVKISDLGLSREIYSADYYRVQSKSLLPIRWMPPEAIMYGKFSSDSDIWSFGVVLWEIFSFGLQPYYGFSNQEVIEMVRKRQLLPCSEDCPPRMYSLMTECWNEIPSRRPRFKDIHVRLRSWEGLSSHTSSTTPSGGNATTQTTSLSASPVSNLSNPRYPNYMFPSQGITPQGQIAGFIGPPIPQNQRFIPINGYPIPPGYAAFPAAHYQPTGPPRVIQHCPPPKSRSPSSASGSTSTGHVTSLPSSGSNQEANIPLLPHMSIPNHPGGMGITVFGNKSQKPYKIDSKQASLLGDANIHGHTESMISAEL
T3 sequence (Q01973 30-406 limits assumed): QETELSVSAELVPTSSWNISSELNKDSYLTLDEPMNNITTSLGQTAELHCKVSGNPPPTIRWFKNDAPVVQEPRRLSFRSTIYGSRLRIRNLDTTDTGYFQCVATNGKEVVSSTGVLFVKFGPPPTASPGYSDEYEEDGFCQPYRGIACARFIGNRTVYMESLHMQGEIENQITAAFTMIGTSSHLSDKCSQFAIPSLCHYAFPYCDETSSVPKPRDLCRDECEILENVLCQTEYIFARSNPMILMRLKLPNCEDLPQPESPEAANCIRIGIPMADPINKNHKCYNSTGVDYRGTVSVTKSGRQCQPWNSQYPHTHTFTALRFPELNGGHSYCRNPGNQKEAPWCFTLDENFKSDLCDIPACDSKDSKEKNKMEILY
T1 sequence (Q01973 30-406 limits assumed): as above
T2 sequence (P09693 23-182 limits assumed, chain 1 of 3): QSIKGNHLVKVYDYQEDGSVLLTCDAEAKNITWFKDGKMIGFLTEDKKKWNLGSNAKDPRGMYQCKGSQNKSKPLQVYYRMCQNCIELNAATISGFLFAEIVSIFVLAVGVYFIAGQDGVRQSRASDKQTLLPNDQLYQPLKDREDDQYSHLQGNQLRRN
T2 sequence (P04234 22-171 limits assumed, chain 2 of 3): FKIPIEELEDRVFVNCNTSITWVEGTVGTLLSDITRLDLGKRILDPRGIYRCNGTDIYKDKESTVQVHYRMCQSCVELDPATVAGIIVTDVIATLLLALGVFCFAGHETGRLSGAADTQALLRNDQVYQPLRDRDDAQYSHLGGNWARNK
T2 sequence (P07766 23-207 limits assumed, chain 3 of 3): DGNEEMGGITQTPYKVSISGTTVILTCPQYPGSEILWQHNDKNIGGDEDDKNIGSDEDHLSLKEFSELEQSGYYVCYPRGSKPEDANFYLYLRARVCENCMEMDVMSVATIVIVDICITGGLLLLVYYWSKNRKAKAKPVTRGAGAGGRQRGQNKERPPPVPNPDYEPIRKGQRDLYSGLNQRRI

Binder | Kd [1] [nM] | binding result [2] | Kd [3] [nM] | EC50 (read off the curve) [4] [µg/mL] | EC50, LDH release, ROR1-transfected MEC [5] | Max. LDH Release, ROR1-transfected MEC [5] [%]
B1 | 0.105 | binds | 0.085 | ~0.02 | – | –
B2 | 0.147 | binds | 0.233 | – | – | –
B3 | 0.109 | binds | 0.408 | – | 5 ng/mL and 40 pM | 48
B4 | 0.157 | binds | 0.301 | – | – | –
B5 | 0.07 | binds | 0.055 | ~0.02 | – | –
B6 | 0.082 | binds | 0.033 | – | – | –
B7 | 0.073 | binds | 0.092 | – | – | –
B8 | 0.094 | binds | 0.144 | – | – | –
